Laboratory results as given in the DeepSol protein solubility set.

Assay: soluble on expression in E. coli; label from the status in PepcDB or PDB records

Sequence | soluble on expression in E. coli
MKVAIIGATGYGGIELIRLLEQHPYFSIASLHSFSQVGECITNVYPHFQNVLVHTLQEIDVEEIEKEAEIVFLATPAGVSAELTPKLLAVGLKVIDLSGDFRMKDPFIYEQWYKRAAAKEGVLREAVYGLSEWKRSEIQKANLIANPGCFATAALLAILPLVRSGIIEEDSIIIDAKSGVSGAGKTPTTMTHFPELYDNLRIYKVNEHQHIPEIEQMLAEWNRETKPITFSTHLIPISRGIMVTLYAKVKREMEIEQLQQLYEEAYEQSAFIRIRMQGEFPSPKEVRGSNYCDMGIAYDERTGRVTIVSVIDNMMKGAAGQAIQNANIVAGLEETTGLQHMPLYL | not soluble
MKVFGISGSPRLQGTHFAVNYALNYLKEKGAEVRYFSVSRKKINFCLHCDYCIKKKEGCIHKDDMEEVYENLIWADGVIIGTPVYQGNVTGQLKTLMDRCRAILAKNPKVLRGRVGMAIAVGGDRNGGQEIALRTIHDFFIINEMIPVGGGSFGANLGATFWSKDRGKKGVEEDEEGLRVLRKTLNRFYEVLKEKRGLLEHHHHHH | not soluble
MKVFTFLLIIMVCLYNFGVRAAMDNSKHSDEAEKLLAELSARKGEGEGEGEGEGEGEGEGEPKSTVSVFYLQPEEVNTLSHQAKRGDGEAGFRLFLYYKLSNYDEEKSSQWLKIAANNGHATAQYRLYVELQEQGETKEANEWLQKIKLAASNNDSSAIWFLVNCYKNQGNKKEALQWAYKLKASKQPLDADRLIEELTKEQK | soluble
MKVLEERNAFLSDYEVLKFLTDLEKKHLWDQKSLAALKKSRSKGKQNRPYNHPELQGITRNVVNYLSINKNFINQEDEGEERESSGAKDAEKSGISKMSDESFAELMTKLNSFKLFKAEKLQIVNQLPANMVHLYSIVEECDARFDEKTIEEMLEIISAYA | soluble
MKVLNELRQFYPLDELLRAAEIPRSTFYYHLKALSKPDKYADVKKRIGEIYHENRGRYGYRRVTLSLHREGKQINHKAVQRLMGTLSLKAAIKVKRYRSYRGEVGQTAPNVLQRDFKATRPNEKWVTDVTEFAVNGRKLYLSPVIDLFNNEVISYSLSERPVMNMVENMLDQAFKKLNPHEHPVLHSDQGWQYRMRRYQNILKEHGIKQSMSRKGNCLDNAVVECFFGTLKSECFYLDEFSNISELKDAVTEYIEYYNSRRISLKLKGLTPIEYRNQTYMPRV | not soluble
MKVNTWFGVLELDSNGKTLSSEVFPKDIRELALRSLSLRESRQNLPPEGFDLKTAALECGFTESLSEYYSLLHKVTLETVKLQVSQALTPDQRIIQAVEALDDINETTNSLSERLFEWYGGYFPESGLSGEELAVFISRYGSRENLPPEDPHYLKAKNSMGAKLEAADEVLLKGLAESVCSLYERRKQIEAYIESSMEILAPNLALLAGPMLGARLISIAGSLEKLAAFPSSTIQVIGASKALFKHLRSRAPSPKHGIIYSHPLINTSPWWVRGKVARALAAKLSLAARIDFYSAKRNPSLENELEEKIRKIRAENPRPPQKRQEIRAKPKKKRRKLEHHHHHH | soluble
MKVSKFGGSSVSNATQIKKVLNIVNSDPERKIVIVSAPGKRHDNDIKTTDLLIRLYEKVINHLDYHDKKREIIQRYDDIVKELQMDESILRTIDVTLEHYINQLKNEPKRLLDALLSCGEDFNAQLIALYNNSQGIPTKYISPKEAGIFVTDVPQEAQILDSAYSEIKKLRDYDEKLIIPGFFGVSHEGYIVTFPRGGSDITGAIISSGVRATIYENFTDVSGIYKANPNIIKDPELIEEITYREMRELSYAGFSVFHDEALQPLYKDRIPVVIKNTNRPQDKGTFIVHDREINAKNVISGISCDKDFTVINIKKYLMNRQVGFTRKILGVLEDNNISFDHMPSGIDTISIVMRSKQIQNKETKVLNEIRQKCDVDELSIEHDLAILMIVGEGMNKVIGTANKITHALAESKINLKMINQGASEISMMFGIHVDDAEKAVLSTYEFCYHGVALKNLCDKNMAGDPLEHHHHHH | not soluble
MKVSQVFISAISVFGLATSVNAQNASNTTSNAAPALHAQNGQLLNAGVVGAAVGGALAFLI | soluble
MKVVILGSGSYSGTPKPLCNCENCSIARRNPAFRRTRFSLYIEEGKILVDPSPDLHYHLERLNKKVENVFITHAHFDHIFGVPDLQVYKKLIISSNTLGIKVAKELSRLAFGSEVPSGYEWRYEELQFWNEYSFDNFRVIHFPVIHSLEIAGGYLFEIKGRRIGVTGDTGPEILKDEKVKKLLEGVDILIVEMTKRESIPGVHLGVSDSIEFAKVVGASYTVFAHISHTNYSHEVLEKRVRESGVQGEVARDFTIIEVLEHHHHHH | not soluble
MKVVPAQRCVYSFSANMAPVEEVYPGEQVVFETLDALGGSYDKIDFSKVNPATGPVFVNGVKPGDTLKVRIKRIELPRRGMIVTGKGFGVLGDEVEGFHTKELEIEKWAVLFDGVRIPIHPMVGVIGVAPQEGEYPTGTAHRHGGNMDTKEITENVTVHLPVFQEGALLALGDVHATMGDGEVCVSACEVPAKVVVEIDVSKEEIKWPVVETNDAYYIIVSLPDIEEALKEVTRETVWFIQRRKTIPFTDAYMLASLSVDVGISQLVNPAKTAKARIPKYIFTGVLEHHHHHH | not soluble
MKWTGEDVALYERERDYIDTALLPLLPVAFGQGAKRLASGGELVGLIAAEVERQLKGRLFLMPSFVYFADEPRALLTERLADWTNRLRREGMKHLFYVTCDRAWQEGEEADRVWFVPVVPLESMGESYKHELVREQAAELLRFLIGRWAQE | not soluble
MKYDTSELCDIYQEDVNVVEPLFSNFGGRSSFGGQIITVKCFEDNGLLYDLLEQNGRGRVLLVDGGGSVRRALVDAELARLATQNEWEGLVIYGAVRQVDDLEELDIGIQAIAAIPVGAAGEGIGESDVRVNFGGVTFFSGDHLYADNTGIILSEDPLDIE | not soluble
MKYLHTEKDYLDLLLAVKRKFDYQRSIVPYIVYFLLKTGMRFGELVALTWNEVDFDRGLLKTYRRYNTLSHKFVPPKNKTSIRMVPIDEECIKILRLLQTEQERANMELGIKNRYRMIFQHFGYIHSVPDIASVNKALSVLLNELDIYPIITTKGARHTYGSYLWHKGFDLGVIAKILGHRDISMLVEVYGHTLEEKIFEEFNQIRDIWKDCSLEHHHHHH | not soluble
MKYLLVDLSGKVDNYDKALYQALEKELSNEKSSIQLLIPGHGLIRLIPNKFSQTEFIVKRLIKALEGGINYIYLLLHVAFKKIDTIHFQWLPFVEVVGIEKYILYLLHVLSPQTKVILTIHNIYPHGVKSMSDSGKQKYKKRFRDTCRNIDNIIVHTESSKMEVIKEFDFVPDIISIVHHGVFIPKIRISKKEFLQKNKYVILQFGLQTYYKGTDILVDAVNLLPAEYSEKIETRIVGGVGESYLQELKGKDSNSLIHWKSYFLSNDELYEEINNSDVLVLPYREISQSGVLLLSIYFEKNIICSDLPSFVETIHGDQDNSLDHDFFFKNNDPSSLCELLMRYIDSNINNEKIQYRIKHLKNLYSWENAAKATISIYRK | not soluble
MKYQLNLTALRCPIPLLSAKKALKNLDKNDELMLILNLESAVENFSIFAEENSVALVEQYYASEKEFIVILKK | not soluble
MKYRSVFDIIGPVMIGPSSSHTAGAARMGQVARQLFRHEPERVSISLYGSFAKTYRGHGTDVALIGGILGFETDDLRIPEALEIAKEREIEVEFIEEDANAPHPNTARIRLYKGEEEIEVVACSIGGGKIEVVELNGFDLQLSGTSPALLIVNNDRFGAIAAVASILAKHEINISTMSVSRKEKGRRALMVIETDEILADEVIEEIKAQQNICQVTIME | not soluble
MKYTQSFCFVSVIVLSSSVHLHGQNNKMNVLLIIADDMRPELGCYGIEDIVTPRLDSLARYATVFQNAYCNIPVSGASRASLFTGMYPRYPNRFTAFDASAEKDCPEALSLPECFKKNGYYVVSNGKVFHNITDHADSWSEAPWRVHPDGYGKDWAEYNKWELWQNEESSRYVHPKTLRGPFCESADVADTTYIDGRVAQKTIADLRRLHKKEKPFFLACGFWKPHLPFNAPKKYWDLYRREEIHLAQNPYRPKALPKQVTSSGEIRGYGKFVTTKDETFQREAKHGYYACVSYIDAQIGLILDELDRLGLSENTIVVILGDHGWHLGEHGFWGKHNLMNHATRAPLIVRVPHCRGGKAKGIVEFVDIYPTLCELCGVPMPKDQLQGKSFVPILQDSGKKTKQYAFIQWKGGYNIVSEQYSSTIWLQGDSVVARMIFDRQLDASENENKVHCPYLSRERDKLEAQIKIRKSQLLEHHHHHH | not soluble
MKYVIGIDGGGSKTHMKISTLDYKVLLEVFKGPSNINSSTKEEVKRVLQELIMEGLGKLGQSLEECSAICIGTAGADRTEDKSIIEDMIRSLGYMGKIIVVNDAEIALAGGIEKREGIIVISGTGSICYGRNKEGRSARSGGWGHIIGDEGSGYDIGIKAIKAALKSFDKRGEKTILEGDILDFLKLKSHEDLINYIYRSGVTKKEIASLTRVVNSAYIKGDLVSKRILKEAARELFLSVKAVVEVLSMQNKKVVLTTAGGVINNINYLYDEFRKFLNLNYPKVKIISMKNDSAFGAVIIARSECDMAGDPLEHHHHHH | not soluble
MLAKRIIPCLDVRDGQVVKGVQFRNHEIIGDIVPLAKRYAEEGADELVFYDITASSDGRVVDKSWVSRVAEVIDIPFCVAGGIKSLEDAAKILSFGADKISINSPALADPTLITRLADRFGVQCIVVGIDTWYDAETGKYHVNQYTGDESRTRVTQWETLDWVQEVQKRGAGEIVLNMMNQDGVRNGYDLEQLKKVREVCHVPLIASGGAGTMEHFLEAFRDADVDGALAASVFHKQIINIGELKAYLATQGVEIRIC | not soluble
MLASLHIANYVLIDRLDIDFAPHFSVITGETGAGKSILLGALGLLVGGRADTSAIAPGTDRCIVEGRFTGFVPEMKAVLDRYDLDFDPDECTIRREISSKGKSRAFVNDTPAPLTALRELADFLIDIHSQHKNLLLGDSLFQLNVLDAYSGKPDLYAHYSKAYRVYAERKQKLEDLRKAAAATASEYDYWQFRFEQLDKAGLESGEEARLQEEQAMLTHALDIKRELGHSYSLLSDDERGLLSGLNKVEDALATIESYYPDSASFRQRVRDVRIELADIASDLGRRSDDVSYEPERLNAVTDRLDEILSLLHRYNADSSDALIAIRDDLAERLSRISTDEEEISRLEQEVLAFYKEIEAQASLLTEERIRAASALETSLCESLRKLNMPHVRFVVDIRSTEYGPHGADKVVFLFSANKQMEPEPVSEIASGGEIARLMLCLKALIADKRSLPAIVFDEIDTGVSGEVADRMGEIMAHMGQGMQVLAITHLPQIAARGERHYFVYKDETGERARTFIRELTPEERIREIARMQSGNNLTDVALAAAKELLAR | not soluble
MLCSMGTLFQRLSSLDGKGYGAYKSIAGRHALEGVPGAELFLDKVQSDPYAPASLSRVRVPLAALPFSGSLSTHQRDLLNRRIAGEFCHGLAIDCPGQQVLSRAAVTQLDDALQICFEVQLPARGRRIRGREAAQLLCTTLSRALDRALCITAGGDALRAELEAAAELERDQAALR | not soluble
MLDTQTIAIVKSTIPLLAATGPKLTAHFYERMFKHHPELKNIFNMSNQSSGDQREALFNAICAYATNIENLAALLPTVERIAQKHTSLNIQPEHYPIVGEHLIATLDELFSPGQAVLDAWAKAYGVLADVFIQRESQIYQQSETETGGWRTLRRFRIIKKEQQSEVICSFVLAPEDGGQVLHYKPGQYLGIYIEHESLEFQEIRQYSLTTAPNGKTYRIAVKREEQGTVSNLLHRELNEGDIVRIAPPRGDFFLDVSPDTPVALISAGVGQTPMLSMLNTLYSQQHAAPVHWLHAAENGRVHAFADEVSAIAAKMPNLSRHVWYREPDLQDKHGEDYHSQGLMDLSSYQWLADDPKRHYYFCGPLPFMQFIGRQLLAQGIAPEQIHYECFGPHKVI | not soluble
